Source: US20210163598A1 (BEIJING PROTEOME RESEARCH CENTER, published 2021)

How the values were obtained:
[1] = target: T1, BTN3A1 overexpressed on BT474 cells (BT474-BTN3A1) (UniProt O00481 30-513, limits assumed); experiment: flow cytometric adhesion assay, human LSECtin detected with antibody CCB059
T1 construct: whole, on cells; Expressed from pIRES2-EGFP-BTN3A1 in BT474 cells
Description: (§1) 3. Each cell in the step 2 was obtained by digestion and collection, and then was adhered to human LSECtin protein (R&D, 2947-CL) and mouse LSECtin-Fc protein, respectively, and the human LSECtin adhesion rate was detected by mouse anti-human LSECtin antibody CCB059. […] mouse LSECtin adhesion rate was detected by anti-IgG (Biolegend, 405307), and the adhesion ratio was detected by flow cytometry. Details of adhesion assay have been published in the method of “Tang L, Yang J, Tang X, et al. The DC-SIGN family member LSECtin is a novel ligand of CD44 on activated T cells[J], European journal of immunology. 2010, 40(4): 1185-1191”.

[2] = target: BTN3A2 overexpressed on BT474 cells (BT474-BTN3A2) (Homo sapiens (Human), UniProt P78410 30-334); experiment: flow cytometric adhesion assay, murine LSECtin-Fc detected with anti-IgG
Chain of BTN3A2 overexpressed on BT474 cells (BT474-BTN3A2) (P78410 30-334 limits assumed): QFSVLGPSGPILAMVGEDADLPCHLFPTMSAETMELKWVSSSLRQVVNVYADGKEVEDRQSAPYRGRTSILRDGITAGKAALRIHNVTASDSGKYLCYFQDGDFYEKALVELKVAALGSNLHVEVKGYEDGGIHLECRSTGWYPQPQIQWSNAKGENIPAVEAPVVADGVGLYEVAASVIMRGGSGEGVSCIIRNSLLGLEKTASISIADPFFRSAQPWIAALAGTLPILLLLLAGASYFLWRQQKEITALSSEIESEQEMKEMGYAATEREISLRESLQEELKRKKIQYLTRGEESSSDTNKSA
Description: as §1

[3] = target: T1, BTN3A1 overexpressed on BT474 cells …; experiment: as above
Description: as §1

T1 sequence (O00481 30-513 limits assumed): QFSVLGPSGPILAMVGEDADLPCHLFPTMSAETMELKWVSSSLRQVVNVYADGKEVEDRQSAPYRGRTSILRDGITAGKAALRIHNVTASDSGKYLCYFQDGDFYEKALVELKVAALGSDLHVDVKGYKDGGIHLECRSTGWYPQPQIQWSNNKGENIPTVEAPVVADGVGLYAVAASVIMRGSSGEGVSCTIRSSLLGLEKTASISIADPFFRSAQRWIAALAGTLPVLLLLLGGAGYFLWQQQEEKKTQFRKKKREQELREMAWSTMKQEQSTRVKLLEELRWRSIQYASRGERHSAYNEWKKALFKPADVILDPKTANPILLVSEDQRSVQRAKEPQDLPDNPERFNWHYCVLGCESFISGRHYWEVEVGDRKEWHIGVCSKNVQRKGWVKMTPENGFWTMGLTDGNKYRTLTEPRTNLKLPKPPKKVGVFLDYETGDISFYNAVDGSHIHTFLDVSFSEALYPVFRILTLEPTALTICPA

B1: human LSECtin protein (R&D, 2947-CL) (ligand)
chain: SKASTERAALLDGHDLLRTNASKQTAALGALKEEVGDCHSCCSGTQAQLQTTRAELGEAQAKLMEQESALRELRERVTQGLAEAGRGREDVRTELFRALEAVRLQNNSCEPCPTSWLSFEGSCYFFSVPKTTWAAAQDHCADASAHLVIVGGLDEQGFLTRNTRGRGYWLGLRAVRHLGKVQGYQWVDGVSLSFSHWNQGEPNDAWGRENCVMMLHTGLWNDAPCDSEKDGWICEKRHNC
notes: Bought recombinant protein (R&D 2947-CL); also called human recombinant protein LSECtin; Liver Sinusoidal Endothelial Cells lectin
binding result [1]: no binding

B2: mouse LSECtin-Fc protein (Fc fusion, UniProt Q8BNX1 52-294, looked up)
chain: LLSSASSKLRVLLSHQDLLRTNASEQKMTLSSLKDDIGACRNCCSVTKAQLQTTLAEFKDIQAKLMEQESILKELQERVTQDLAKASRDRENIRSELFQALEAVKRQNSSCEQCPPSWLPFQGSCYYFSETQATWDTAQSYCGGQGAHLVIVRGLNEQGFLSQHTRGRGYWLGLRAVRHLNKIQGYRWVDGASLNFSHWNSGEPNDSRGHEDCIMMLHSGLWNDAPCTNERDGWICEKRSSCY
notes: also called murine LSECtin-Fc; murine LSECtin; not shown: Fc part
binding result [2]: no binding
binding result [3]: no binding
